According to US20130115677:
Residue numbers refer to the chain shown, from its start.

Tests used:
Assay in all cases: cleavage_in_vitro
[1] = target: T1, BamHI-HF E163A/E167T (Bacillus amyloliquefaciens) (UniProt P23940); conditions: NEB4, 37 C, Mg2+
T1 sequence: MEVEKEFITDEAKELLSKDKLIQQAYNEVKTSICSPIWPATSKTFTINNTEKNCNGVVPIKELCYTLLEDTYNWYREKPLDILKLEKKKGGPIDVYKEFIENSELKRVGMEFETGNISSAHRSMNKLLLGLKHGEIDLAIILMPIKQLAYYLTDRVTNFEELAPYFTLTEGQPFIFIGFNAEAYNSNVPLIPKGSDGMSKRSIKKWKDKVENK

[2] = test system: T2, BspQI (Bacillus sphaericus); conditions: NEB4, 50 C, Mg2+
T2 sequence: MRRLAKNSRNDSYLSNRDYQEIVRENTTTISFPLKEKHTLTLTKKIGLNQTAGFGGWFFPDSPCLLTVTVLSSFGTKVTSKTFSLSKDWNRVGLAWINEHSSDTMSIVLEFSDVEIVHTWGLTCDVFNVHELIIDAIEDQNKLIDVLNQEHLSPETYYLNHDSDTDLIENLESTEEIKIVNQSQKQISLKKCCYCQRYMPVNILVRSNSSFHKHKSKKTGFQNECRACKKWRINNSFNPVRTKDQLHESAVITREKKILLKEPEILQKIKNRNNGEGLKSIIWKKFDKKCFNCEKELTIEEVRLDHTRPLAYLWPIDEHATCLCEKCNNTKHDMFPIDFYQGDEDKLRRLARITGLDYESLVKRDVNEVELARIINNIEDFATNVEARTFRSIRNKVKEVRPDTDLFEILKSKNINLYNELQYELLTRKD

BstXI = conditions: NEB4, 55 C, Mg2+
[3] = target: EcoRI (Escherichia coli RY13) (UniProt P00642); conditions: NEB4, 37 C, Mg2+; 250 in NEB1 and NEB3
[4] = target: EcoRI(K62A) K62A (Escherichia coli RY13) (UniProt P00642); conditions: NEB4, 37 C, Mg2+
[5] = target: T3, HpaI (Haemophilus parainfluenzae) (UniProt P29537); conditions: NEB4, 37 C, Mg2+
T3 sequence: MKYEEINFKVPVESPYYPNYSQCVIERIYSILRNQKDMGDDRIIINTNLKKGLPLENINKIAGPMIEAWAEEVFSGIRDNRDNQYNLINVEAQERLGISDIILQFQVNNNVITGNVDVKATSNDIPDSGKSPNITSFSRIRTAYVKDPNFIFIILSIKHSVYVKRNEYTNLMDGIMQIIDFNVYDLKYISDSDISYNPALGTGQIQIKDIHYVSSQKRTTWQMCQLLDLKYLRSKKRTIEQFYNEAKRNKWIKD

[6] = test system: T4, NcoI-HF A2T/R31A (Nocardia corallina); conditions: NEB4, 37 C, Mg2+
T4 sequence: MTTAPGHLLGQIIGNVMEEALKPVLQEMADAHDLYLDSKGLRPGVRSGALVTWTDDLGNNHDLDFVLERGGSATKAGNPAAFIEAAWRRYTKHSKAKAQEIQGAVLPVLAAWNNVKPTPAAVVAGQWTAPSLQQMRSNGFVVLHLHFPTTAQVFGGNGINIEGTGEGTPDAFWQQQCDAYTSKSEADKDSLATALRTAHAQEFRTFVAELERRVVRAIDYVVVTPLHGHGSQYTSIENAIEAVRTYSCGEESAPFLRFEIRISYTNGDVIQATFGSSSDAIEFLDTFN

[7] = test system: T5, SapI (Saccharopolyspora sp.); conditions: NEB4, 37 C, Mg2+
T5 sequence: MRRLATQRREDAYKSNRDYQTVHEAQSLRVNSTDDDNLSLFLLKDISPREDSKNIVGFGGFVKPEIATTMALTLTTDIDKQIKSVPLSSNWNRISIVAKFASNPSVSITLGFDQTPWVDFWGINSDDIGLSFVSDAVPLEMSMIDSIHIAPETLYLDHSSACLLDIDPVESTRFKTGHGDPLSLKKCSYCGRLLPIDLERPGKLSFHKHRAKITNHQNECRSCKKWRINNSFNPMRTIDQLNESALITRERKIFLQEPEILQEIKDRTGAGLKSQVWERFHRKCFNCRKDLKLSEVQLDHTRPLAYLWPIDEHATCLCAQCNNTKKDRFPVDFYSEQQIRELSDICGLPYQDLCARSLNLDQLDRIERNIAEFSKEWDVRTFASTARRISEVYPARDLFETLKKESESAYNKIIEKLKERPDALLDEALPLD

[8] = target: T6, ScaI-HF H193A/S201F (Streptomyces caespitosus) (UniProt O52691); conditions: NEB4, 37 C, Mg2+
T6 sequence: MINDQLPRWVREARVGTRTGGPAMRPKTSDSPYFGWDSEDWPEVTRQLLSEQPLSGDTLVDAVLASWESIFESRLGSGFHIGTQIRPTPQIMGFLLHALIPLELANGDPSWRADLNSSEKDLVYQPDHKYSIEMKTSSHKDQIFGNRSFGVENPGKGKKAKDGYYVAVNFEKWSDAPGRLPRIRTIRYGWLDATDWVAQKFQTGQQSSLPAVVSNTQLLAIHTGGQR

[9] = test system: T7, SspI (Sphaerotilus species); conditions: NEB4, 37 C, Mg2+
T7 sequence: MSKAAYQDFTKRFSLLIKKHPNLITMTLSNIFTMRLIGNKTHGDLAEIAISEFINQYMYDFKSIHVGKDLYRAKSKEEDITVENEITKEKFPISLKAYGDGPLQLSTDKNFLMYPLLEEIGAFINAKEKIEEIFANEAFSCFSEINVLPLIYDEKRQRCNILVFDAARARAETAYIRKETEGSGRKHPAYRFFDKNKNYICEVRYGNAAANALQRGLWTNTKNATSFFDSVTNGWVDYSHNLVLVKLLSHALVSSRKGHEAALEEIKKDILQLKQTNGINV

[10] = test system: T8, SspI-HF Y98F (Sphaerotilus species); conditions: NEB4, 37 C, Mg2+
T8 sequence: T7 sequence with Y98F

## lambda DNA
[1]
  activity (fidelity index): > 4000
[2]
  activity (fidelity index): 4
BstXI
  activity (fidelity index): 4
[3]
  activity (fidelity index): 4
[4]
  activity (fidelity index): 32000
[5]
  activity (fidelity index): 16
[6]
  activity (fidelity index): > 64000
[7]
  activity (fidelity index): 16
[8]
  activity (fidelity index): 1000
[9]
  activity (fidelity index): 16
[10]
  activity (fidelity index): 500
